Measured values from patent US11873336 (TENEOBIO, dated 2024).

T1: human CD22 on CD22-positive Burkitt's lymphoma cells (Daudi, Raji, Ramos) (human, UniProt P20273 20-847)
T1 construct: whole, on cells; also called CD22+ cells; CD22 positive cells
T1 sequence (looked up): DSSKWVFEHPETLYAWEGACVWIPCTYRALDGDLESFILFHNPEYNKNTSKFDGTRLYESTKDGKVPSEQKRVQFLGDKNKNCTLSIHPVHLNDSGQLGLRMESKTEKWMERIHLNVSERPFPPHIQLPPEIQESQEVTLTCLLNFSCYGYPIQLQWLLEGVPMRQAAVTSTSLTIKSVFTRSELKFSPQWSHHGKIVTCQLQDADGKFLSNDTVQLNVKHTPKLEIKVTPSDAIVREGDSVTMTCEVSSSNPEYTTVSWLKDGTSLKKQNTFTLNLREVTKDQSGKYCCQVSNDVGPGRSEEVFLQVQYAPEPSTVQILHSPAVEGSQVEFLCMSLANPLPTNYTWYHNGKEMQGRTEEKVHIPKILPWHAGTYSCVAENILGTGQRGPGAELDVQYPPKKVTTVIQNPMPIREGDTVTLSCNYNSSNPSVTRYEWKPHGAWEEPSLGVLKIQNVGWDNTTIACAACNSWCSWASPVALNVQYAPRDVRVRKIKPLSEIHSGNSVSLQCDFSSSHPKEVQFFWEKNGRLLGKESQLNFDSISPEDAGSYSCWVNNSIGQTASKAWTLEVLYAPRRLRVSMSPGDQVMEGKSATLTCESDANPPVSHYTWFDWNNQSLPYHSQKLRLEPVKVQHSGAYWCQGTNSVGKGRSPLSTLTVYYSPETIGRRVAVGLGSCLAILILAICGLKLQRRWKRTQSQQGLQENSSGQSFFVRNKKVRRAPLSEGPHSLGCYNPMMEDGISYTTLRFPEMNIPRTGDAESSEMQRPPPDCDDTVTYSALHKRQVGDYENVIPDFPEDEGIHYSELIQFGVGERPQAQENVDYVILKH

T2: human CD22 protein (recombinant CD22 extracellular domain) (human, UniProt P20273 20-687)
T2 construct: extracellular domain; also called SIGLEC-2
T2 sequence (looked up): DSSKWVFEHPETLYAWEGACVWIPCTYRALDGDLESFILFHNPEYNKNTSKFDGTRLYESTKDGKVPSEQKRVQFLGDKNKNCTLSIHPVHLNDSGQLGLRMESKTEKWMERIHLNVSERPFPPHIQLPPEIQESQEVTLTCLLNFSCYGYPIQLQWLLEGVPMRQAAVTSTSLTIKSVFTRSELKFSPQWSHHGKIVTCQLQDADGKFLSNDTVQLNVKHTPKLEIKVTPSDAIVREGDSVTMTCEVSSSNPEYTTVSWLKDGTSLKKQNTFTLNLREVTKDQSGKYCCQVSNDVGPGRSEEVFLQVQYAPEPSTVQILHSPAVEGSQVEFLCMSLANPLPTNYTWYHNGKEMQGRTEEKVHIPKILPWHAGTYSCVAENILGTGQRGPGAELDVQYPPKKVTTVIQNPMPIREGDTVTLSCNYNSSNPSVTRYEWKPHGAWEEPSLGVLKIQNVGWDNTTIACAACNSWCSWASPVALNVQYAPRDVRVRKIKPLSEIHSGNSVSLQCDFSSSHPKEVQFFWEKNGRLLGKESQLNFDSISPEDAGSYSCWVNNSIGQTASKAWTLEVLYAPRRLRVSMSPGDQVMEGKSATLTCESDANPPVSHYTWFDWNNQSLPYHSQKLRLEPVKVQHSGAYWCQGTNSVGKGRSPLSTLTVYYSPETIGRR


Tests used:
[1] = biological target: T1, human CD22 on CD22-positive Burkitt's …; experiment: cell binding, Daudi cells
Experimental: Binding to CD22 positive cells was assessed by flow cytometry (Guava easyCyte 8HT, EMD Millipore) using the Daudi cell line (ATCC). Briefly, 100,000 target cells were stained with a dilution series of purified UniAbs™ for 30 minutes at 4° C. Following incubation, the cells were washed twice with flow cytometry buffer (1×PBS, 1% BSA, 0.1% NaN_3) and stained with goat F(ab')2 anti-human IgG conjugated to R-phycoerythrin (PE) (Southern Biotech, cat. #2042-09) to detect cell-bound antibodies. After a 20-minute incubation at 4° C., the cells were washed twice with flow cytometry buffer and then mean fluorescence intensity (MFI) was measured by flow cytometry. EC50 values were calculated using GraphPad Prism 7. Binding to *cynomolgus* CD22 positive cells was determined using the same protocol with the following modifications: the target cells were from CHO cells stably transfected to express the extracellular domain of *cynomolgus* CD22 and each antibody was tested at a single concentration (~1.7 µg/mL) so EC50 values were not calculated.

[2] = biological target: T2, human CD22 protein (recombinant CD22 …); experiment: ELISA on recombinant CD22 extracellular domain and/or cell binding

| Binder | binding result [1] | binding result [2] |
| --- | --- | --- |
| anti-CD22 heavy chain-only antibody with the VH of SEQ ID NO: 59 (antibody, V domains shown, Heavy chain-only antibody (UniAb), human IgG) VH: QLQLQESGPGLVKPSETLSLTCTVSGDSISSSSYYWGWIRQPPGKGLEWIGSIYYSGSTYYNPSLKSRVTISVDTSKNQFSLKLSSVTAADTAVYYCTREDSSNWRSRGQGTLVTVSS | binds | binds |
| anti-CD22 heavy chain-only antibody with the VH of SEQ ID NO: 60 (antibody, V domains shown, Heavy chain-only antibody (UniAb), human IgG) VH: QLQLQESGPGLVKPSETLSLTCTVSGGSISSSSYYWGWIRQPPGKGLEWIGSIYYSGSTYYNPSLKSRVTISVDTSKNQFSLKLSSVTAADTAVYYCAREDSSSWRSRGQGTLVTVSS | binds | binds |
| anti-CD22 heavy chain-only antibody with the VH of SEQ ID NO: 76 (antibody, V domains shown, Heavy chain-only antibody (UniAb), human IgG) VH: QLQLQESGPGLVKPSETLSLTCTVSGGSISSSSYYWGWIRQPPGKGLEWIGSVYYTGATYYNPSLKNRVTISVDTSKNQFSLKLSSVTAADTAVYYCTRDDSSNWRSRGQGTLVTVSS | binds | binds |
| anti-CD22 heavy chain-only antibody with the VH of SEQ ID NO: 73 (antibody, V domains shown, Heavy chain-only antibody (UniAb), human IgG) VH: QLQLQESGPGLVKPSETLSLTCTVSGGSISSSSYYWGWIRQPPGKGLEWIGSIYYSGVTYYNPSLKNRVTISVDTSKNQFSLKLSSVTAADTAVYYCTREDSSSWRSRGQGTLVTVSS | binds | binds |
| anti-CD22 heavy chain-only antibody with the VH of SEQ ID NO: 80 (antibody, V domains shown, Heavy chain-only antibody (UniAb), human IgG) VH: QLQLQESGPGLVKPSETLSLTCTVSGGSISSSSYYWGWIRQPPGKGLEWIGHIYYSGATYYNPSLKNRVTISVDTSRNQFSLNLSSVTAADTAVYYCTREDSSNWRSRGQGTLVTVSS | binds | binds |
| anti-CD22 heavy chain-only antibody with the VH of SEQ ID NO: 69 (antibody, V domains shown, Heavy chain-only antibody (UniAb), human IgG) VH: QLQLQESGPGLVKPSETLSLTCTVSGGSISSSSYYWGWIRQPPGKGLEWIGSIYYSGSTYYNPSLKSRVTISVDTSKNQFSLKLSSVTAADTAVYYCTREDSSNWRSRGQGTLVTVSS | binds | binds |
| anti-CD22 heavy chain-only antibody with the VH of SEQ ID NO: 63 (antibody, V domains shown, Heavy chain-only antibody (UniAb), human IgG) VH: QLQLQESGPGLVKPSETLSLTCTVSGGSISSSSYYWGWIRQPPGKGLEWIGSIYYSGSTYYNPSLKSRVTISVDTSKNQFSLKLSSVTAADTAVYYCTREDSSSWRSRGQGTLVTVSS | binds | binds |
| anti-CD22 heavy chain-only antibody with the VH of SEQ ID NO: 74 (antibody, V domains shown, Heavy chain-only antibody (UniAb), human IgG) VH: QLQLQESGPGLVKPSETLSLTCTVSGDSISSGDYYWGWIRQSPEKGLEWIGHIYYSGVTYYNPSLKNRVTISVDTSKNQFSLKLSSVTAADTAVYYCKRDDSSNWRSRGQGTLVTVSS | binds | binds |
| anti-CD22 heavy chain-only antibody with the VH of SEQ ID NO: 72 (antibody, V domains shown, Heavy chain-only antibody (UniAb), human IgG) VH: QLQLQESGPGLVKPSETLSLTCTVSGGSISSSSYYWGWIRQPPGKGLEWIGSIYYSGATYYNPSLKNRVTISVDTSRNQFSLNLSSVTAADTAMYYCTREDSSNWRSRGQGTLVTVSS | binds | binds |

Second part, the binder after the results:

| binding result [1] | binding result [2] | Binder |
| --- | --- | --- |
| binds | binds | anti-CD22 heavy chain-only antibody with the VH of SEQ ID NO: 67 (antibody, V domains shown, Heavy chain-only antibody (UniAb), human IgG) VH: QLQLQESGPGLVKPSETLSLTCTVSGGSITSSSYYWGWIRQPPGKGLEWIGSIYYSGSTYYNPSLKSRVTISVDTSKNQFSLKLSSVTAADTAVYYCTRDDSSNWRSRGQGTLVTVSS |
| binds | binds | anti-CD22 heavy chain-only antibody with the VH of SEQ ID NO: 65 (antibody, V domains shown, Heavy chain-only antibody (UniAb), human IgG) VH: QLQLQESGPGLVKPSETLSLTCTVSGGSISSSSYYWGWIRQPPGKGLEWIGSIYYSGATYYNPSLKNRVTISVDTSRNQFSLNLSSVTAADTAVYYCTREDSSSWRSRGQGTLVTVSS |
| binds | binds | anti-CD22 heavy chain-only antibody with the VH of SEQ ID NO: 70 (antibody, V domains shown, Heavy chain-only antibody (UniAb), human IgG) VH: QLQLQESGPGLVRPSETLSLTCTVSGGSISSSSYYWGWIRQPPGKGLEWIGSIYYSGSTYYNPSLKSRVTISVDTSKNQFSLKLSSVTAADTAVYYCTREDSSSWRSRGQGTLVTVSS |
| binds | binds | anti-CD22 heavy chain-only antibody with the VH of SEQ ID NO: 75 (antibody, V domains shown, Heavy chain-only antibody (UniAb), human IgG) VH: QLQLQESGPGLVKPSETLSLTCTVSGGSISSSSYYWGWIRQPPGKGLEWIGHIYYSGATYYNPSLKNRVTISVDTSKNQFSLKLSSVTAADTAVYYCTREDSSSWRSRGQGTLVTVSS |
| binds | binds | anti-CD22 heavy chain-only antibody with the VH of SEQ ID NO: 62 (antibody, V domains shown, Heavy chain-only antibody (UniAb), human IgG) VH: QLQLQESGPGLVKPSETLSLTCTVSGGSISSSSYYWGWIRQPPGKGLEWIGHIYYSGATYYNPSLKNRVTISVDTSRNQFSLNLSSVTAADTAVYYCTREDSSSWRSRGQGTLVTVSS |
| binds | binds | anti-CD22 heavy chain-only antibody with the VH of SEQ ID NO: 78 (antibody, V domains shown, Heavy chain-only antibody (UniAb), human IgG) VH: QLQLQESDPGLVKPSETLSLTCTVSGGSISSSSHYWGWIRQPPGKGLEWIGHIYYSGATYYNPSLKNRVTISVDTSRNQFSLNLSSVTAADTAVYYCTREDSSNWRSRGQGTLVTVSS |
| binds | binds | anti-CD22 heavy chain-only antibody with the VH of SEQ ID NO: 68 (antibody, V domains shown, Heavy chain-only antibody (UniAb), human IgG) VH: QLQLQESGPGLVKPSETLSLTCTVSGGSISSSSYYWGWIRQPPGKGLEWIGSIYYSGVTYYNPSLKNRVTISVDTSKNQFSLKLSSVTAADTAVYYCTREDSSNWRSRGQGTLVTVSS |
| binds | binds | anti-CD22 heavy chain-only antibody with the VH of SEQ ID NO: 79 (antibody, V domains shown, Heavy chain-only antibody (UniAb), human IgG) VH: QLQLQESGPGLVKPSETLSLTCTVSGGSISSSSYYWGWIRQPPGKGLEWIGSIYYSGSTYYNPSLKNRVTISVDTSRNQFSLNLSSVTAADTAVYYCTRDDSSNWRSRGQGTLVTVSS |
| binds | binds | anti-CD22 heavy chain-only antibody with the VH of SEQ ID NO: 61 (antibody, V domains shown, Heavy chain-only antibody (UniAb), human IgG) VH: QLQLQESGPGLVKPSETLSLTCTVSGGSISSSSYYWGWIRQPPGKGLEWIGSIYYSGATYYNPSLKNRVTISVDTSKNQFSLKLSSVTAADTAVYYCTREDSSSWRSRGQGTLVTVSS |
| binds | binds | anti-CD22 heavy chain-only antibody with the VH of SEQ ID NO: 71 (antibody, V domains shown, Heavy chain-only antibody (UniAb), human IgG) VH: QLQLQESGPGLVKPSETLSLTCTVSGGSISSSSYYWGWIRQPPGKGLEWIGSIYYSGATYYNPSLKNRVTISVDTSRNQFSLNLSSVTAADTAVYYCTREDSSNWRSRGQGTLVTVSS |
| binds | binds | anti-CD22 heavy chain-only antibody with the VH of SEQ ID NO: 66 (antibody, V domains shown, Heavy chain-only antibody (UniAb), human IgG) VH: QLQLQESGPGLVKPSETLSLTCTVSGGSISSSSYYWGWIRQPPGKGLEWIGSIYYSGSTYYNPSLKNRVTISVDTSKNQFSLKLSSVTAADTAVYYCTREDSSNWRSRGQGTLVTVSS |
| binds | binds | anti-CD22 heavy chain-only antibody with the VH of SEQ ID NO: 64 (antibody, V domains shown, Heavy chain-only antibody (UniAb), human IgG) VH: QLQLQESGPGLVKPSETLSLTCTVSGGSISSSSYYWGWIRQPPGKGLEWIGHIYYSGATYYNPSLKNRVTISVDTSKNQFSLKLSSVTAADTAVYYCTRDDSSNWRSRGQGTLVTVSS |
